# Experimental data published in article PMC8807876.
# Biological target: TopBP1 (UniProt Q92547)
# Test: anti-GFP nanobody IP, TopBP1 immunoblot
# Details: reference: wild type; sites T969,S1001
substance,measurement,value
Treslin/TICRR (from UniProt Q7Z2Z1) 2PM (T969A/S1001A),binding against the reference,lost
